Assay results reported in the nanobody polyreactivity screen of Harvey et al. (2022).

Assay: yeast display, Sf9 membrane polyspecificity reagent, FACS + sequencing; frameworks hold sequencing errors
How it was run: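 After 36–48 hours of galactose induction, yeast (Saccharomyces cerevisiae BJ5465) displaying a synthetic nanobody library were stained at 4 °C for 1 hour with 10% biotinylated, detergent-solubilized Sf9 membrane reagent. Streptavidin microbeads enriched the stained cells before FACS sorting into low and high (top ~1%) gates on anti-HA and streptavidin fluorescence. Each clone's polyreactivity label reflects its gate of origin.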

Sequence	polyreactivity (PSR sort gate)
QVQLVESGGGLVQAGGSLRLSCAASGSIFYENNMGWYRQAPGKEREFVAAISRSGGSTYYADSVKRRFTISRDNAKNTVYLQLNSLKPEDTAVYYCAARSRPGYAVYYWGQGTQVTVSS	high polyreactivity
QVQLVESGGGLVQAGGSLRLSCAASGSIFYENTMGWYRQAPGKEREFVAAISRSGGSTYYADSEKGRYTISRDNAKNTVYLQRNSLKPEDTAVYYCAAKSRRYHHEYYYWGQGTQVTVSS	high polyreactivity
QVQLVESGGGLVQAGGSLRLSCAASGSIFYENVMGWYRQAPGKERELVAGISRSGGRTYYADSVKGRFTISRDNAKNTVYLQMNSLIPEDTAVYYCNAARVYLSEWGQGTQVTVSS	high polyreactivity
QVQLVESGGGLVQAGGSLRLSCAASGSIFYFNDMGWYRQAPGKEREFVARITRSGSSTSYADSVKGRFTISRDNAKNTVYLQMNSLKPEDTAVYYCAARYRRYSTSRYYYWGQGTQVTVSS	high polyreactivity
QVQLVESGGGLVQAGGSLRLSCAASGSIFYFYAMGWYRQAPGKERELVAAISFSGTRTYYADSVKGRFTISRDNAKNTVYLQRNSLKPEDTAVYYCNAVAYNYPRTYDYWGPGTQVTVSS	high polyreactivity
QVQLVESGGGLVQAGGSLRLSCAASGSIFYFYAMGWYRQAPGKERELVAAISRSVGSTNYADSVKGRFTISRDNAKNTVYLQMNSLKPEDTAVYYCAARRYGAYYWGQGTQVTVSS	high polyreactivity
QVQLVESGGGLVQAGGSLRLSCAASGSIFYFYAMGWYRQAPGKERELVAAITSGGSTYYADSVEGRFTISRDNAKNTVYLQMNSLKPEDTAVYYCNAVSSYGYDYWGQGTQVTVSS	high polyreactivity
QVQLVESGGGLVQAGGSLRLSCAASGSIFYFYDMGWYRQAPGKERELVAAISLDDGGTYYADSVKGRFTISRDNAKNTVYLQMNSLKPEDTAVYYCAADYYYWYQIYDYWGQGTQVTVSS	high polyreactivity
QVQLVESGGGLVQAGGSLRLSCAASGSIFYFYTMGWYRQAPGKERELVASITYSGGRTYYADSVKGRFTISRDNAKNSVYLQMNSLKPEDTAVYYCAVRGYRRYWGQGTQVTVSS	high polyreactivity
QVQLVESGGGLVQAGGSLRLSCAASGSIFYGNAMGWYRQAPGKERELVAAISKRGGSTYYADSVKGRFTISRDNAKNTVYLQMNSLIPEDTAVYYCDKGSAGHTEYYYWGQGTQVTVSS	high polyreactivity
QVQLVESGGGLVQAGGSLRLSCAASGSIFYGNAMGWYRQAPGKERELVAAISYRGVRTYYADSVKGRFTISRDNAKNTVYLQMNSLKPEDTAVYYCAATQGYRREYDYWGQGTQVTVSS	high polyreactivity
QVQLVESGGGLVQAGGSLRLSCAASGSIFYGNTMGWYRQAPGKERELVAAIDYRGDSTYYADSVKGRFTISRDNAKNTVYLQMNSLKPEDTAVYYCAADQTPFGQVYYGTLSIRDYWGQGTQVTVSS	low polyreactivity
QVQLVESGGGLVQAGGSLRLSCAASGSIFYGNTMGWYRQAPGKERELVAAISSGGGSTYYADSVKGRFTISRDNAKNTFYSKMNSMKPEETAVYYCAKRTYKQASGYWYDSWGQGTKVTVSS	high polyreactivity
QVQLVESGGGLVQAGGSLRLSCAASGSIFYGYAMGWYRPAPGKERELVAAINWSGGGTYYADSVKGRFTISRDNAKNTVYLQMNSLKPEDTAVYYCAAGHVVRRPYLIYDYWGQGTQVTVSS	high polyreactivity
QVQLVESGGGLVQAGGSLRLSCAASGSIFYGYAMGWYRQAPGKERELVAAINWSGGGTYYADSVKGRFTISRDNAKNTVYLQMNSLKPEDTAVYYCAAGHVVRRPYLIYDYWGQGTQVTVSS	high polyreactivity
QVQLVESGGGLVQAGGSLRLSCAASGSIFYGYAMGWYRQAPGKERELVAAITSGGRTYYADSVKGRFTISRDNAKNTVYLQMNSLKPEDTAVYYCNKLNYWSVRYEYWGQGTQVTVSS	high polyreactivity
QVQLVESGGGLVQAGGSLRLSCAASGSIFYGYAMGWYRQAPGKERELVARITGSGGDTSYADSVKGRFTISRDNAKNTVYLQMNSLKPEDTAVYYCAKRGYHFLTKYDYWGQGTQVTVSS	low polyreactivity
QVQLVESGGGLVQAGGSLRLSCAASGSIFYGYAMGWYRQAPGRERELVAAIRYRGGRTDYGDSVKGRFTISRDNAKKTVYLQMNSLKPEDTAVYYCAKDLIRYGYLTYVYWGQGTQVTVSS	high polyreactivity
QVQLVESGGGLVQAGGSLRLSCAASGSIFYGYAMGWYRQAPRKERELVAAISSSGGSTYYADSVKGRFTISRDTAKNTVYLQMNSLKPEDTAVSYCARSRSYWGIVYGRYDYWGQGTQVTVSS	high polyreactivity
QVQLVESGGGLVQAGGSLRLSCAASGSIFYGYDMGWYRQAPGKERELVATISWSSGSSTYYADSVKGRFTISRDNAKNTVYLQMNSLKPEDTAVYYCAVDFAIGYRYLGRVDYWGQGTQVTVSS	low polyreactivity
QVQLVESGGGLVQAGGSLRLSCAASGSIFYGYDMGWYRQAPGKERELVATISWSSGSSTYYADSVKGRFTISRDNAKNTVYLQMNSLKPEYTAVYYCAVDFAIGYRYLGRVDYWGQGTQVTVSS	low polyreactivity
QVQLVESGGGLVQAGGSLRLSCAASGSIFYGYVMGWYRQARGKERELVAAITRSGSTYYADSVKGRFTISRDNAKNTVYLQMNSLKPEDTAVYYCAAAAKRKYYWGQGNQVTVSS	high polyreactivity

Sequence	polyreactivity (PSR sort gate)
QVQLVESGGGLVQAGGSLRLSCAASGSIFYHNAMGWYRQAPGKERELVAAITWSGSTTYYADSVKGRFTISRDNAKKTVYLQMNSLKPEDTAVYYCNAGHRHGHYDYWGQGTQVTVSS	low polyreactivity
QVQLVESGGGLVQAGGSLRLSCAASGSIFYHYAMGWYRQAPGKERELVAAISSGGSTSYADSVKGRFTFSRDNAKNTVYLQMNSLKPEDTAVYYCNARRIRSRSWKYDYWGQGTQVTVSS	low polyreactivity
QVQLVESGGGLVQAGGSLRLSCAASGSIFYIYAMGWYRKAPGKERELVASIDSGDSTNYADSVKGRFTISRDNAKNTVYLQMNSLKPEDTAVYYCNADTYSEITYYLYIGMDYWGQGTQVTVSS	low polyreactivity
QVQLVESGGGLVQAGGSLRLSCAASGSIFYIYAMGWYRPAPGKEREFVAAITWTGGSTYYADSVKGRFTISRDNAKNTVYLQMNSLKPEDTAVYYCARATVGAWRKMYSWGQGTQVTVSS	high polyreactivity
QVQLVESGGGLVQAGGSLRLSCAASGSIFYIYAMGWYRQAPGKEREFVAAISWIGGSTYYADSVKGRFTISRDNAKNTVYLQMNSLKPEDTAVYYCAAETFTDYDYWGQGTQVTVSS	high polyreactivity
QVQLVESGGGLVQAGGSLRLSCAASGSIFYIYAMGWYRQAPGKERELVAGIRNGGSTKYADSVKGRFTISRDNAKNTVYLQMNSLKPEDTAVYYCAARYYRPYTSSWAHNYRLDDWGQGSQVTVSS	high polyreactivity
QVQLVESGGGLVQAGGSLRLSCAASGSIFYIYVMGWYRQAPGKERELVAAISSGGTTNYADSVKGRFTISRDNAKNTVYLQMNSLIPEDTAVYYCAADVLIARYPGYSYEYWGQGTQVTVSS	low polyreactivity
QVQLVESGGGLVQAGGSLRLSCAASGSIFYKNAMGWYRQAPGKERELVAAISYSGGSTYYADSVKGRFTISRDNAKNTVYLQMNSLKPEDTAVYYCAAKGGAWGQGTQVTVSS	high polyreactivity
QVQLVESGGGLVQAGGSLRLSCAASGSIFYLNAMGWYRPAPGKERELVAAIRWSGGSTRYADSVKGRFTISRDNAKITVYLQLNSLKPEDTAVYSCAADTYVYTLGRYYYWGQGTQVTVSS	high polyreactivity
QVQLVESGGGLVQAGGSLRLSCAASGSIFYLNAMGWYRQAPGKERELDAAIRWSGGSTRYADSVKGRFTISRDNAKNTVYLQMNSLKPEDTAVYYCAKYNPVLVYHWWYYYWGQGTQVTVSS	high polyreactivity
QVQLVESGGGLVQAGGSLRLSCAASGSIFYLYAMGWYRPAPGKERELVAAISRSGASTYYADSVKGRFTISRDNAKNTVYLQMNSLKPEDTAVYYCAAYKIWGRVRYDYWGQGTQVTVSS	low polyreactivity
QVQLVESGGGLVQAGGSLRLSCAASGSIFYLYAMGWYRQAPGKESELVAAITSGDSTTYADSVKWRFTISRDYAKNTVYLQMNSLKPEDTAVYYCAADWPGLVGYHNSAENDYWGQGTQVTVSS	low polyreactivity
QVQLVESGGGLVQAGGSLRLSCAASGSIFYNAMGWYRQAPGKERELVAAISYRGGRTYYADSVKGRFTISRDNAKNTVYLQMNSLKPEDTAVYYCAADSTVGRYPYDYWGPGTQVTVSS	high polyreactivity
QVQLVESGGGLVQAGGSLRLSCAASGSIFYNNAMGWYRQAPGKERELVATISDGGGSTYYADSVKGRFTISRDNAKNTVYLQMNSLKPEDTAVYYCAAPYYWGQGTQVTVSS	low polyreactivity
QVQLVESGGGLVQAGGSLRLSCAASGSIFYNNVMGWYRQAPGKERELVAVISGGGSTNYADSVKGRFTISRDNAKNNVYLHMNSLKREDTAVYYCAARGRYSYGDRYEYWGQATQVTVSS	low polyreactivity
QVQLVESGGGLVQAGGSLRLSCAASGSIFYNTMGWYRQAPGKERELVAAITSGGSTYYADSVKGRFTISRDNAKNTVYLQMNSLKPEDTAVYYCAAESYYCGYQWLYFEYGYWGQGTQVTVSS	low polyreactivity
QVQLVESGGGLVQAGGSLRLSCAASGSIFYPNAMGWYRQAPGKERELVAAITVGGGRTYYADSVKGRFTISRDNAKNTVYLQMNSLKPEDTAVYYCAAQEIVRYPRFDKYDYWGQGTQVTVSS	low polyreactivity
QVQLVESGGGLVQAGGSLRLSCAASGSIFYPNAMGWYRQAPGKERELVATIRRRGGSTYYADSVKGRFTISRDNAKNTVYLQMHSLKPEDTAVDYCAVGSPTPYRALDLYDYWGQGTQVTVSS	high polyreactivity
QVQLVESGGGLVQAGGSLRLSCAASGSIFYPNAMRWYRQAPGKQRELVAVITGGATTYYADSVKGRFTISRDYAKNTVYLQRNSLNPEDTAVDYCAADSAENVYRGYDWGQGTQVTVSS	low polyreactivity
QVQLVESGGGLVQAGGSLRLSCAASGSIFYPNVMGWDRQAPGKERELVAAIRTSGGSTYYADSVKGRFTISRDNAKNTVYLQMNSLKPEDTAVYYCAADYIYVKYEYWGQGTQVTVSS	high polyreactivity
QVQLVESGGGLVQAGGSLRLSCAASGSIFYPNVMGWYRQAPGKERELVATISWSGGNTYYADSVKGRFTISRDNAKNTVYLQMNSLKPEDTAVYYCAADQWSQDYDYWGQGTQVTVSS	low polyreactivity
